# The nanobody polyreactivity screen of Harvey et al. (2022)
# Test: yeast display, Sf9 membrane polyspecificity reagent, FACS + sequencing; frameworks hold sequencing errors
# Outline: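 Nanobodies came from a synthetic yeast display library in Saccharomyces cerevisiae BJ5465, induced with galactose for 36–48 hours and stained for 1 hour at 4 °C with 10% biotinylated, detergent-solubilized Sf9 membrane reagent. Cells were enriched on streptavidin microbeads and then FACS-sorted, with low and high (top ~1%) gates set on anti-HA fluorescence for expression and streptavidin fluorescence for reagent binding. Each polyreactivity label reflects the gate a clone came from. Genes were amplified by colony PCR, sequenced by MiSeq 2 × 250 and filtered by CDR length.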
row,Sequence,polyreactivity (PSR sort gate)
1,QVQLVESGGGLVQAGGSLRLSCAASGFIFSQYAMGWYRQAPGTERELVAVISKSSGSTYYADSVKGRFTISCDNAKNTVYLQMNSLKPEDTAVYYCNRRYYYRTYDYWGQGTQVTVSS,high polyreactivity
2,QVQLVESGGGLVQAGGSLRLSCAASGFIFSRNAMGWYRQAPGKERELVAAISLRGGSTYYADSVKGRFTISRDNAKNTVYLQMNSLKPEDTAVYYCAADSVLTPYDYWVQGTQVTVSS,low polyreactivity
3,QVQLVESGGGLVQAGGSLRLSCAASGFIFSRNAMGWYRQAPGKERELVAAISSTGGITYYADSVKGRFTISRDNAKITVYLQMNSLKPEDTAVYYCAAGFYGYARHSWYKYWGQGTQVTVSS,high polyreactivity
4,QVQLVESGGGLVQAGGSLRLSCAASGFIFSSNAMGWYRQAPGKERELVAAITSSGGGTYYADSVKGRFTISRDNAKNTVYLQMNSLKPEDTAVYYCNAAYKYAIPSYGYWGQGTQVTVSS,low polyreactivity
5,QVQLVESGGGLVQAGGSLRLSCAASGFIFSSYAMGWYRQAPGKEMELVAAISWSGGRTYYADPVKGRFTISRDNAKNTVYLQLNSLKPEDTAVYYCNARYPYPYWYTSYDYWGQGTQVTVSS,high polyreactivity
6,QVQLVESGGGLVQAGGSLRLSCAASGFIFSSYAMGWYRQAPGKERELVARISLSGGSTFYADSVKGRFTISRDNAKNTVYLQMNSLKPEDTAVYYCAARDFSTHFSPMDYWGQGPQVTVSS,low polyreactivity
7,QVQLVESGGGLVQAGGSLRLSCAASGFIFSTNFMGWYRQAPGKERELVADINTGGSTSYADSVKGRFTISRDNAKNTVYLQMNSLKPEDTAVYYCAAVLQYYYLSTDDPYDYWGQGTQVTVSS,low polyreactivity
8,QVQLVESGGGLVQAGGSLRLSCAASGFIFSTYAMGWYRQAPGKERELVAAISWSGGRTNYADSVKGRFTISRDNAKNTVYLQMNSLKPEDTAVYYCAVGGERGARIGSNHRGSRYDYWGQGTQVTVSS,high polyreactivity
9,QVQLVESGGGLVQAGGSLRLSCAASGFIFSVYAMGWYRQAPGKERELVAVISTSGGRTYYADSVKGRFTISRDNAKNTVYLQMNSLKPEDTAVYYCAADGFQYTLGNYYWGQGTQVTVSS,high polyreactivity
10,QVQLVESGGGLVQAGGSLRLSCAASGFIFSWYAMGWYRQAPGKERELVAAIDQSGDSTYYADSVKGRFTISRDNAKNTVYLQMNSLKPEDTAVYYCAAQSYDYWYDYDYWGQGTQVTVSS,high polyreactivity
11,QVQLVESGGGLVQAGGSLRLSCAASGFIFSWYAMGWYRQAPGKERELVAAISRSGTRTYYADSVKGRFTISRDNAKNTVYLQMNSLKPEDTAVYYCAAAAKSWLFDYWGQGTQVTVSS,high polyreactivity
12,QVQLVESGGGLVQAGGSLRLSCAASGFIFSYNAMGWYRQAPGKERELVAAISARGGSTYYADSVKGRFTISRDNAKNTVYLQMNSLKPEDTAVYYCNRKQAGHAQGYDYWGQGTQVTVSS,high polyreactivity
13,QVQLVESGGGLVQAGGSLRLSCAASGFIFSYYAMGWYRQAPGKERELVAAINWSGGSTYYADSVKGRFTISRDNAKNTVFLQMNSLKPEDTAVYYCAAYSSWHPYDYWGQGTQVTVSS,high polyreactivity
14,QVQLVESGGGLVQAGGSLRLSCAASGFIFSYYAMGWYRQAPGKERELVAAISRNGGRTYYADSVKGRFTISRDNAKNTVYLQMNSLKPEDTAVYYCATGKIREDDYWGQGTQVTVSS,high polyreactivity
15,QVQLVESGGGLVQAGGSLRLSCAASGFIFSYYAMGWYRQAPGKERELVAAISSSGSRTYYADSVKGRFTISRDNAKNTVYLQMNSLKPEDTAVYYCAARGAAKYGYWGQGTQVTVSS,high polyreactivity
16,QVQLVESGGGLVQAGGSLRLSCAASGFIFSYYAMGWYRQAPGKERELVAAITQSGGGTYYADSVKGRFTISRDNAKNTVYLQMNSLKPEDTAVYYCAKSRRVYSREGWFHYRAYGYWGQGTQVTVSS,high polyreactivity
17,QVQLVESGGGLVQAGGSLRLSCAASGFIFSYYTMGWYRQAPGKERELVAAISRRGGSTYYADSVQGRFTISRDNAKNTVYLQRNSLKPEDTAVYYCAAPRDWDAGDYWGQGTQVTVSS,high polyreactivity
18,QVQLVESGGGLVQAGGSLRLSCAASGFIFTDYAMAWYRQAPGKERELVAAISYGGRTYYADSVKGRFTISRDNAKNTVYLQMNSLKPEDTAVYYCAAEKWDRYSSWSDYWGQGTQVTVSS,high polyreactivity
19,QVQLVESGGGLVQAGGSLRLSCAASGFIFTDYAMGWYRQAPGKERELVAAISSGGRTYYAVSVKGRFTISRDNAKNTVYIQMNSLKPEDTAVYYCARGGRAEGWGQGTQVTVSS,high polyreactivity
20,QVQLVESGGGLVQAGGSLRLSCAASGFIFTGNAMGWYRQAPGKERELLAAISSSGTRTYYADSVKGRFTISRDNASNTVYLQMNSLKPEDTAVYYCNKLYLVWNFYSGYDYWGQGTQVTVSS,high polyreactivity
21,QVQLVESGGGLVQAGGSLRLSCAASGFIFTGYAMGWYRQAPGKERELVAAISWTGDSTYYADSVKGRFTISRDNAKNTVYLQMNSLKPEDTAVYYCAARSYRKPSSRRFDYWGQGTQVTVSS,low polyreactivity
22,QVQLVESGGGLVQAGGSLRLSCAASGFIFTGYAMGWYRQAPGKERELVASISSGGSTYYADSVKGRFTISRDNAKNTVYLLMNSLKPEDTAVYYCNASVSLGRYPGNEYDYEYWGQGTQVTVSS,low polyreactivity

row,Sequence,polyreactivity (PSR sort gate)
1,QVQLVESGGGLVQAGGSLRLSCAASGFIFTIYVMGWYRQAPGKERELVAAISKSVGRTYYADSVKGRFTISRDNAKNTVYLQMNSLKPEDTAVYYCAAVYVKYYGGSYDYWGQGTQVTVSS,high polyreactivity
2,QVQLVESGGGLVQAGGSLRLSCAASGFIFTLNAMGWYRQAPGKERELVASISSGVSTNYADSVKGRFTISRDNAKNTVYLQMNSLKPEDTAVYYCAARDTGPDGFEGDYWGQGTQVTVSS,low polyreactivity
3,QVQLVESGGGLVQAGGSLRLSCAASGFIFTLYTMGWYRQAPGKERELVAAIDKNGSTYYADSVKGRFTISRDNAKNTVYLQMNSLKPEDTAVYYCAADDRYRGNREDYWGQGTQVNVSS,low polyreactivity
4,QVQLVESGGGLVQAGGSLRLSCAASGFIFTPYAMGWYRQAPGKERELVAAIRNTGSTYYADSVKGRFTISRDNAKNTVYLQMNSLKPEDTAVYYCNARRYRWAVVKGGYWGQGTQVTVSS,high polyreactivity
5,QVQLVESGGGLVQAGGSLRLSCAASGFIFTPYTMGWYSQAPGKERELVAAITDGSSTYYADSVKGRFTISRDNAKNTVYLQMNSLKPEDTALYYCNADGKPPYNSWLYDYWGQGTQVTVTS,low polyreactivity
6,QVQLVESGGGLVQAGGSLRLSCAASGFIFTQYAMGWYRQAPGKERELVAAISTSGGRTFYADSVKGRFTISRDNAKNTVYLQMNSLKPEDTAVYYCGARPGYLYDYWGQGTQVTVSS,high polyreactivity
7,QVQLVESGGGLVQAGGSLRLSCAASGFIFTRNAMGLYRQAPGTERELVAVISYGGGSTYYADSVKGRFTISRDNAKNTVYLQMNSLKPEDTAVYYCAADQNWRYYYHYTYYYWGQGTQVTVSS,high polyreactivity
8,QVQLVESGGGLVQAGGSLRLSCAASGFIFTRYAMGWYRQAPGKERELVAVITSSGGTYYADSVKGRFTISRDNAKNTVYLQMNSLKPEDTAVYYCNAVLGYYTYDYWGQGTQVTVSS,high polyreactivity
9,QVQLVESGGGLVQAGGSLRLSCAASGFIFTVNAMGWYRQAPGKDRELVAAITSGGNTYYADSVKGRFTISRDNAKNTVYLQMNSLKPEDTAVYYCNAVFYTWSPYGTTVRSYGYWGQGTQVTVSS,high polyreactivity
10,QVQLVESGGGLVQAGGSLRLSCAASGFIFTYYAMGWYRQAPGKERELVAAITVRGGSTYYADSVKGRFTISRDNAKNTVYLQMNSLKPEDTGVYYCNTVHGLWRRYNYWGQGTQVTVSS,high polyreactivity
11,QVQLVESGGGLVQAGGSLRLSCAASGFIFTYYDMGWYRQAPGKERELVASISWDGGRTYYADSVKGRFTISRDNAKNTVYLQMNSLKPEDTAVYYCNADGSSYWYPVPLDGGDYWGQGTQVTVSS,low polyreactivity
12,QVQLVESGGGLVQAGGSLRLSCAASGFIFVANAMGWYRQAPGKEREFFAAISSSGGRTYYADSVKGRFTISRDNAKNTVYLQMNSLKPEDTAVYYCAKDRVFSRRGFGYWGQGTQVTVSS,low polyreactivity
13,QVQLVESGGGLVQAGGSLRLSCAASGFIFVDYDMGWYSQAPGKERELVAAINWSGGSTDYADSVKGRFTISRDNAKNTVYLQMNSLKPEDTAVYYCAAEGQDGRFYWGQGTQVTVSS,low polyreactivity
14,QVQLVESGGGLVQAGGSLRLSCAASGFIFVHNAMGWYRQAPGKERELVATISRRGGSTYYADSVKGRFTISRDNAKNTVYLQMNILKPEDTAVYYCAARTYGYYLYDYWGQGTQVTVSS,high polyreactivity
15,QVQLVESGGGLVQAGGSLRLSCAASGFIFVIYAKGWYRQAPGKERELVARISFRSGRTYYADSVKGRFTISRDNAKNTVYLQMNSLKPEDTAVYYCNAVLYGQYKYDYWGQGTQVTVSS,high polyreactivity
16,QVQLVESGGGLVQAGGSLRLSCAASGFIFVIYAMGWYRQAPGKERELVARISFRSGRTYYADSVKGRFTISRDNAKNTVYLQMNSLKPEDTAVYYCNAVLYGQYKYDYWGQGTQVTVSS,high polyreactivity
17,QVQLVESGGGLVQAGGSLRLSCAASGFIFVKYAMGWYRQAPGKERELVAAISWSGGTTYYADSVKGRFTISRDNANNTVYLQMNSLKPEDTAVYYCAAEYYTGYFKYDYWGQGTQVTVSS,high polyreactivity
18,QVQLVESGGGLVQAGGSLRLSCAASGFIFVPYAMGWYRQAPGKERELVAAIDTSGGNTYADSVKGRFTISRDNAKNTVYLQMNSLKPEDTAVYYCAARYQWDWRDYYYWGQGTQVTVSS,low polyreactivity
19,QVQLVESGGGLVQAGGSLRLSCAASGFIFVPYAMGWYRQAPGKERELVATITWRGDSTYYADSVKGRFTISRDNAKNTVYLQMNSLKPEDTAVYYCAAVGPIRGYSSDEYWGQGTQVTVSS,low polyreactivity
20,QVQLVESGGGLVQAGGSLRLSCAASGFIFVRNAMGWYRQAPGKERELVAAITGRGGRTYYADSVKGRFTISRDNAKNTVYLQMNSLKPEDTAVYYCAKDSPDDHFGYWGQGTQVTVSS,high polyreactivity
21,QVQLVESGGGLVQAGGSLRLSCAASGFIFVRYAMGWYRLAPGKEREFVAAISGGAGSSYYADSVKGRFTISRDNAKNTVYLQMNSLKPEDTAVYYCNRVRSLRYGYWGQGTQVTVSS,high polyreactivity
